Laboratory results from publication PMC6662825, “The MTR4 helicase recruits nuclear adaptors of the human RNA exosome using distinct arch-interacting motifs” (Nature Communications, 2019).

Target: T1, GST-MTR4∆N F677E (human, UniProt P42285 75-1042, F677E)
T1 construct: source: E. coli BL21 star (DE3), purified (Ni-NTA, heparin, SEC); not shown: 6xHis-GST, N-terminal, kept
T1 sequence (looked up): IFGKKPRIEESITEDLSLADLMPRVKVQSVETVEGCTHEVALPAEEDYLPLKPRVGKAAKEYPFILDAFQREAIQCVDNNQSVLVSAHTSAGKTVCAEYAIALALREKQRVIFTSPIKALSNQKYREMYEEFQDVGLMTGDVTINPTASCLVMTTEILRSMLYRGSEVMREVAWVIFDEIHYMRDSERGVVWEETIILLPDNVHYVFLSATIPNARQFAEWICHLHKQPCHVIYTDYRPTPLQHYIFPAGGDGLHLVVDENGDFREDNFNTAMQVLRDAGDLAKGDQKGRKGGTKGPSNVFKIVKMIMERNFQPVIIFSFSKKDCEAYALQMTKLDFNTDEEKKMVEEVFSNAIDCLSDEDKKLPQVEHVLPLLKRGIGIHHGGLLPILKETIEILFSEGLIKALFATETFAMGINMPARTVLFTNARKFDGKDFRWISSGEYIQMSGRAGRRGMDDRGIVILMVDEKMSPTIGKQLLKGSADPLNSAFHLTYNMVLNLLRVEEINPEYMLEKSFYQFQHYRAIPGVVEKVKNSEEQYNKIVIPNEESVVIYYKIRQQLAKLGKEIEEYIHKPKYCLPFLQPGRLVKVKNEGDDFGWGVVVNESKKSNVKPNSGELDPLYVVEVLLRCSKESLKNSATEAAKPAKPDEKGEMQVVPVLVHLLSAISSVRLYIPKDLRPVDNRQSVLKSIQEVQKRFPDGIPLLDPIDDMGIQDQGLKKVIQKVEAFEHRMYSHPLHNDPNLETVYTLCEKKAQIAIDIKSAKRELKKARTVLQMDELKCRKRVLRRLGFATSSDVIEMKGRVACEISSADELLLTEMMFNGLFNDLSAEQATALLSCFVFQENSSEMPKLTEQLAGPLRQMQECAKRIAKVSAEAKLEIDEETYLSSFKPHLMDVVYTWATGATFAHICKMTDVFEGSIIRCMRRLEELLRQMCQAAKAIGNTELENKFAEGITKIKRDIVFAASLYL
Assay: pull-down; GST-tagged MTR4 constructs as bait, Trx-NVL constructs as prey, glutathione sepharose; 10 μM GST-MTR4∆N with 20 μM Trx-NVL constructs; 50 mM Hepes pH 7.5, 150 mM NaCl, 5% glycerol, 0.05% NP40, 1 mM DTT, 30 min at 4 °C; SDS-PAGE, Coomassie
Conditions: both partners purified

binding result: binds
B1: Trx-NVL^167–216 (domain or fragment, human, UniProt O15381 167-216, looked up)
chain: KDSEGGWFIDKTPSVKKDSFFLDLSCEKSNPKKPITEIQDSKDSSLLESD
notes: source: E. coli BL21 star (DE3), purified (Ni-NTA, SEC); not shown: 6xHis-Trx, N-terminal, kept
